Data reported in patent US20150087581A1 (AURIGENE DISCOVERY TECHNOLOGIES, published 2015).
Bridges are numbered along the chain shown (N, C = ends). Where no end group is shown, it is not given here. [ ]: non-standard residue; d: D form. The star is where a group is joined. Biotin = O=C1N[C@H]2[C@H](CS[C@H]2CCCCC(=O)*)N1; Palmitoyl = CCCCCCCCCCCCCCCC(=O)*; R5 = C=CCCC[C@@](C)(N)C(=O)O; SNTSESF = not defined here; Octanoyl = CCCCCCCC(=O)*; Hexanoyl = CCCCCC(=O)*; Ahx = NCCCCCC(=O)O

Molecular target: hPDL1 expressed on MDA-MB231 cells (human, UniProt Q9NZQ7 19-290)
Assay: cell-based or functional assay

hPDL1 expressed on MDA-MB231 cells, sequence (Q9NZQ7 19-290): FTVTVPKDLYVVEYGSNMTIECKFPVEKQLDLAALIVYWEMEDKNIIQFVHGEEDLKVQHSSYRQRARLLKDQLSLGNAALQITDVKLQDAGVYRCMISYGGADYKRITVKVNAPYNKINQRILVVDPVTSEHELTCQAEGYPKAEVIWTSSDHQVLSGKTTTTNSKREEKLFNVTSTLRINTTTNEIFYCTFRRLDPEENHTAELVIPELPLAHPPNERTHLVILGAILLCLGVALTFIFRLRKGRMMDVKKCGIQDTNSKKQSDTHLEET

| Binder | Percent rescue (100 nM, compared with 100 nM Comp 8) in mouse splenocyte proliferation CFSE based assay [%] |
| --- | --- |
| SNTSESF-NH2 [Compound 1] | 96.5 |
| LAPKFRVTQLAPKAQIKE-NH2 (not fully specified (residue 4); printed as LAPK(LAP)FRVTQLAPKAQIKE-NH2) [Compound 38] | 51.5 |
| SNTSESFK(SNTSESF)FRVTELAPKAQIKE-NH2 (lactam 13-17; reading uncertain) [Compound 64] | 69.1 |
| SNQTDKVLNWYRMLAPKAQIKE-NH2 (not fully specified (residue 6); printed as SNQTDK (SNQTDK) VLNWYRM LAPKAQIKE-NH2) [Compound 10] | 10.6 |
| SNTSESFKFRVTQLAP-NH2 (not fully specified (residue 8)) [Compound 41] | 5.1 |
| SNTSESFKFRVTQLAKQIKE-NH2 (not fully specified (residues 8, 16)) [Compound 36] | 89.7 |
| SNTSESFKFRVTQLAPKAQIKE-NH2 (not fully specified (residue 8)) [Compound 20] | 27.8 |
| SNQTDKFRVTQLAPKAQIKE-NH2 (not fully specified (residue 6); printed as SNQTDK (SNQTDK) FRVTQ LAPKAQIKE-NH2) [Compound 9] | 11.3 |
| SNTSESFKFRVTQLAPKAQIKE-NH2 (not fully specified (residue 8)) [Compound 11] | 12.4 |
| SNQTDKLAAFPEDSQPGQD-NH2 [Compound 3] | 37.3 |
| SNTSESFKFRVTQLAPKAQIK(Octanoyl)E-NH2 (not fully specified (residue 8)) [Compound 46] | 67 |
| EKIQAKPAYWNLVKDTQNS-NH2 (not fully specified (residue 14)) [Compound 14] | 18 |
| SNTSESFKSNTSESFFRVTQLAPKAQIKE-NH2 [Compound 28] | 56.5 |
| SNWSEDLK(SNWSEDL)FQIIQLHPKAKIEE-NH2 [Compound 69] | 48 |
| SNTSESFKLAPKAQIKE-NH2 (not fully specified (residue 8)) [Compound 30] | 58.8 |
| SNTSESFFRVTQKLAPKAQIKE-NH2 (not fully specified (residue 13)) [Compound 42] | 52.9 |
| SNTSESFKFRVTQKAQIKE-NH2 (not fully specified (residue 8)) [Compound 31] | 11.3 |
| EDRSQPGQDCR-NH2 [Compound 4] | 74.7 |
| SNTSESFKKAQIKE-NH2 (not fully specified (residue 8)) [Compound 32] | 14.8 |
| SNTSESFK(SNTSESF)FRVTQLAPEAQIKE-NH2 (lactam 17-21; reading uncertain) [Compound 62] | 37 |
| SNTSESFKFRVTQLAPKAQIKE-NH2 [Compound 27] | 73.6 |

| Binder | Percent rescue (100 nM, compared with 100 nM Comp 8) in mouse splenocyte proliferation CFSE based assay [%] |
| --- | --- |
| SNTSESFKFRVTQKKAQIKE-NH2 (not fully specified (residues 8, 14)) [Compound 35] | 81.2 |
| SNTSESFKFRVTQLAPKAQIKE-NH2 (not fully specified (residue 8); printed as SNTSESFK(LAP)FRVTQLAPKAQIKE-NH2) [Compound 37] | 89.6 |
| SNTSESFKFRVTQLAPKAQIKE-NH2 (not fully specified (residue 8)) [Compound 84] | 80.5 |
| Ac-SNTSESFKFRVTQLAPKAQIKE-NH2 (not fully specified (residue 8)) [Compound 17] | 32.9 |
| FRVTQKFRVTQLAPKAQIKE-NH2 (not fully specified (residue 6)) [Compound 7] | 61.5 |
| SNTSESFK(SNTSESF)FKVTQEAPKAQIKE-NH2 (lactam 10-14; reading uncertain) [Compound 63] | 68 |
| SNTSESF[R5]PKA[R5]SNTSESF-NH2 (staple 8-12; not fully specified; printed as SNTSESFR5PKAR5SNTSESF) [Compound 22] | 71.4 |
| Hexanoyl-SNTSESFKFRVTQLAPKAQIKE-NH2 (not fully specified (residue 8)) [Compound 16] | 45.8 |
| {Biotin-Ahx}-[dS][dN][dT][dS][dE][dS][dF][dK][dF][dR][dV][dT][dQ][dL][dA][dP][dK][dA][dQ][dI][dK][dE]-NH2 (not fully specified (residue 8); printed as Biotin-Ahx-sntsesfk(sntsesf)frvtqlapkaqike-NH2) [Compound 60] | 14.9 |
| SNWSEDLKFQIIQLHPK(MPA‑NH‑CH2‑CH2‑O‑CH2‑CH2‑O‑CO)AKIEE-NH2 (not fully specified (residue 8)) [Compound 91] | 69.4 |
| SNTSESFKFK(Palmitoyl)VTQLAPKAQIKE-NH2 (not fully specified (residue 8)) [Compound 40] | 82 |
| SNTSESFKFRVTQLAQIKE-NH2 (not fully specified (residue 8)) [Compound 25] | 27.6 |
| SNWSEDLK(SNWSEDL)FQIIQLHPK(Palmitoyl)AKIEE-NH2 [Compound 82] | 58.3 |
| SNTSESFK-NH2 (not fully specified (residue 8)) [Compound 29] | 31.1 |
| {Biotin-Ahx}-EKIQAKPAYWNLVKDTQNS-NH2 (not fully specified (residue 14)) [Compound 61] | 67 |
| SNTSESFFRVTQLAPKAQIKE-NH2 [Compound 26] | 86.6 |
| FRVTQLAPKAQIKE-NH2 [Compound 43] | 66 |
| Hexanoyl-SNTSESFKFRVTQLAPKAQIKE-NH2 (not fully specified (residue 8)) [Compound 21] | 76.7 |
| EKIQAKPALQTVRFKFSESTNS (not fully specified; Retro inverso (All D-amino acid); branch fsestns on the side chain of lys 15 of the main chain; C-terminal amide) [Compound 49] | 73 |
| SNTSESFKFRVTQLAPK(Octanoyl)AQIKE-NH2 (not fully specified (residue 8)) [Compound 45] | 68 |
